What was measured:
[1] = tested on: MJ T lymphoma cells; experiment: T lymphoma cell line cell killing assay; assay type: cell-based; parameters: key to Cell killing Span: NC = Not Calculable; NK = No Killing; settings: 120 hours
Protocol: (§1) A total of 12500 cells in a volume of 25 μL were seeded in a 384-well flat bottom white polystyrene plate the day before the assay. […] Filter-sterilized compounds were serial diluted in culture medium and 25 μL of the compounds were added into treatment wells in quadruplicates. Plates were cultured at 37° C. in a CO2 incubator for 120 hours. For cell viability measurement, 30 μL of Cell Titer-Glo® reagent (Promega Corp.; Madison, Wis.) was added into each well, and plates were processed per product instructions. Relative luminescence was measured on an ENVISION® plate reader (Perkin-Elmer; Waltham, Mass.). Relative luminescence readings were converted to percent (%) viability using untreated cells as controls. Data was fitted with non-linear regression analysis, using log(inhibitor) vs. response, variable slope, 4-parameter fit equation using GraphPad Prism (GraphPad v 5.00, Software; San Diego, Calif.). Data was expressed as percent (%) relative cell viability (average of the quadruplicates) vs. dose of compounds in units of nanomolar (nM). Cell killing EC50 values and span were calculated by Prism in order to evaluate the potency of each compound on each cell line.

[2] = tested on: Jurkat T leukemia cells; experiment: T lymphoma cell line cell killing assay; assay type: cell-based; parameters: key to Cell killing Span: NC = Not Calculable; NK = No Killing; settings: 120 hours
Protocol: as §1

[3] = tested on: ARP-1 multiple myeloma cells; experiment: Disseminated ARP-1 multiple myeloma model; assay type: in vivo, mouse; settings: CB17 SCID mice, ARP-1 i.v., 3 mg/kg q7dx4 IV
Protocol: Female CB17 SCID (severe combined immunodeficiency) were inoculated with ARP-1 cells via tail vein injection. Prior to tumor cell inoculation, animals were pre-treated with 0.4 mg/mouse Fludarabine and 2 mg/mouse Cyclophosphamide (intraperitoneal injection). Randomization and treatment was initiated 14 days post tumor inoculation. Treatment groups are outlined in Table 4. All test articles were formulated in 10 mM citrate pH 6.0, 10% sucrose and diluted with PBS. Animals were administered with the designated test article four times every 7 days (q7dx4) by intravenous injection. […] Body weights were monitored twice per week. When vehicle control animals reached the study endpoint (euthanized due to large, palpable internal tumors), three animals from the Group 2 and Group 3 were euthanized for necropsy and bone marrow harvest (from tibia and femur) for flow cytometry. The remaining animals in treated groups were monitored for up to 3 months after start of treatment.
Bone marrow cells from mouse femur and tibia were pooled and assessed for CD138 expression using the Alexa Fluor 647 mouse anti-human CD138 clone MI15 (BD Biosciences #562097) according to the manufacturer's protocol. Direct immunofluorescence flow cytometric analysis was performed using an LSRII flow cytometer and FACS Diva Software. Data was analyzed using Flowjo (Tree Star, Inc., Ashland, Oreg.).
Body weight, tissue volume, or tissue weights at study endpoint, were analyzed using a one-way analysis of variance (ANOVA) with Dunnett's multiple comparison test. A probability of less than 5% (p<0.05) was considered as significant.

[4] = tested on: SUP-B15 (ALL); experiment: Cell killing assay (cell proliferation, Cell Titer-Glo); assay type: cell-based; settings: 72 hrs
Protocol: Cytotoxicity effects of the free drug linkers and conjugates were measured with a cell proliferation assay. A total of 12500 cells in a volume of 25 μl were seeded in a 384-well flat bottom white polystyrene plate on the day of assay. Free drug-linkers and conjugates were formulated at 2× starting concentration (1000 nM for free drug linkers and 100 nM for ADCs) in RPMI medium and filtered through MultiScreen HTS 96-Well Filter Plates (Millipore). Filter sterilized samples were serial diluted (1:3) under sterile conditions and added into treatment wells. Plates were cultured at 37° C. in a CO2 incubator for 72 hrs. For cell viability measurement, 30 μl of Cell Titer-Glo® reagent (Promega Corp.) was added into each well, and plates processed as per product instructions. Relative luminescence was measured on an ENVISION® plate reader (Perkin-Elmer; Waltham, Mass.). Relative luminescence readings were converted to % viability using untreated cells as controls. Data was fitted with non-linear regression analysis, using log(inhibitor) vs. response, variable slope, 4 parameter fit equation using GraphPad Prism. Data was expressed as % relative cell viability vs. dose of free drug-linker or conjugate in nM.

B1: Conjugate A: anti-CD74 IgG with pAMF at heavy chain EU position 404 conjugated to DBCO-PEG4-maytansine (conjugate)
VH: QVQLVESGGGVVQPGRSLRLSCAASGFNFSDYGMHWVRQAPGKGLEWVAVIWYDGSISYYADSVKGRFTISRDNSKNTLYLQMNSLRAEDTAVYYCARGGTVEHGAVYGTDVWGQGTTVTVSS
VL: DIQMTQSPSSVSASVGDRVTITCRASQGIGSWLAWYQQKPGKAPKLLIYAADRLQSGVPSRFSGSGSGTDFTLTISSLQPEDFATYYCQQYHTYPLTFGGGTKVEIK
modifications: non-natural residues
Cell killing Span [1]: NC | cell killing activity (in words) [1]: less potent cell killing | Cell killing Span [2]: NK | EC50 [2]: > 50 nM | cell killing activity (in words) [2]: No cell killing was observed | body weight change (BWC) [3]: No meaningful change in body weight | delay of weight gain after first round of treatment [3]: approximately 20 days | human CD138 positive ARP-1 myeloma cells in the bone marrow (femur and tibia) ([3]; flow cytometry): substantially inhibited ARP-1 growth in the bone marrow | kidney and ovary tissue weights ([3]; n=3): comparable tissue weights to untreated age-matched control animals | Cell Killing Activity Span [4]: 64% | Cell Killing Activity Span ([4]; listed as A): 65%
